# Results published in patent publication US20200199081.
# What was measured:
# [1] = target: HA-tagged NRASQ61R (HA-NRASQ61R)
# [2] = target: HA-tagged wild-type NRAS (HA-NRASWT)
protein,measurement,setting,value
Flag-tagged STK19D89N (protein) MQKWFSAFDDAIIQRQWRANPSRGGGGVSFTKEVDTNVATGAPPRRQRVPGRACPWREPIRGRRGARPGGGDAGGTPGETVRHCSAPENPIFRFSSLHSYPFPGTIKSRDMSWKRHHLIPETFGVKRRRKRGPVESDPLRGEPGSARAAVSELMQLFPRGLFEDALPPIVLRSQVYSLVPDRTVADRQLKELQEQGEIRIVQLGFDLDAHGIIFTEDYRTRVCDCVLKACDGRPYAGAVQKFLASVLPACGDLSFQQDQMTQTFGFRDSEITHLVNAGVLTVRDAGSWWLAVPGAGRFIKYFVKGRQAVLSMVRKAKYRELLLSELLGRRAPVVVRLGLTYHVHDLIGAQLVDCISTTSGTLLRLPET,"in vitro kinase assay, phosphorylation of NRAS",[1],phosphorylation of purified recombinant NRAS was enhanced by STK19D89N to a higher extent than by STK19WT
same,"in vitro kinase assay, phosphorylation of NRAS",[2],phosphorylation of purified recombinant NRAS was enhanced by STK19D89N to a higher extent than by STK19WT
Flag-tagged STK19 wild type (STK19-Flag) (protein) MQKWFSAFDDAIIQRQWRANPSRGGGGVSFTKEVDTNVATGAPPRRQRVPGRACPWREPIRGRRGARPGGGDAGGTPGETVRHCSAPEDPIFRFSSLHSYPFPGTIKSRDMSWKRHHLIPETFGVKRRRKRGPVESDPLRGEPGSARAAVSELMQLFPRGLFEDALPPIVLRSQVYSLVPDRTVADRQLKELQEQGEIRIVQLGFDLDAHGIIFTEDYRTRVCDCVLKACDGRPYAGAVQKFLASVLPACGDLSFQQDQMTQTFGFRDSEITHLVNAGVLTVRDAGSWWLAVPGAGRFIKYFVKGRQAVLSMVRKAKYRELLLSELLGRRAPVVVRLGLTYHVHDLIGAQLVDCISTTSGTLLRLPET,"in vitro kinase assay, phosphorylation of NRAS",HA-NRASS89A,mutation of S89 to alanine (S89A) abolished phosphorylation of NRASWT and NRASQ61R
same,"in vitro kinase assay, phosphorylation of NRAS",HA-NRASQ61R/S89A,mutation of S89 to alanine (S89A) abolished phosphorylation of NRASWT and NRASQ61R
same,"in vitro kinase assay, NRAS preloaded with GDP, GTP or GTPγS",[2],a higher STK19-induced phosphorylation of the GTP- and GTPγS-loaded NRAS than GDP-loaded NRAS
same,"serine phosphorylation of NRAS (immunoblot after NRAS immunoprecipitation, HPMs)",[2],only a marginal increase in phosphorylation of NRASWT was detected
Flag-tagged kinase-dead STK19K317P (protein) MQKWFSAFDDAIIQRQWRANPSRGGGGVSFTKEVDTNVATGAPPRRQRVPGRACPWREPIRGRRGARPGGGDAGGTPGETVRHCSAPEDPIFRFSSLHSYPFPGTIKSRDMSWKRHHLIPETFGVKRRRKRGPVESDPLRGEPGSARAAVSELMQLFPRGLFEDALPPIVLRSQVYSLVPDRTVADRQLKELQEQGEIRIVQLGFDLDAHGIIFTEDYRTRVCDCVLKACDGRPYAGAVQKFLASVLPACGDLSFQQDQMTQTFGFRDSEITHLVNAGVLTVRDAGSWWLAVPGAGRFIKYFVKGRQAVLSMVRKAPYRELLLSELLGRRAPVVVRLGLTYHVHDLIGAQLVDCISTTSGTLLRLPET,phosphorylated serine levels in NRAS (immunoblot),[1],The upregulation of phosphorylated serine levels in NRAS was also diminished by overexpression of a kinase-dead STK19 K317P mutant
